Reference: patent US20250163182A1

Assays:
[1] = biological target: human ENPP3 on cells (human) (UniProt O14638); assay: flow cytometry receptor quantification on 786-O cells
[2] = biological target: human ENPP3 on cells (human) (UniProt O14638); assay: flow cytometry receptor quantification on TUHR4TKB cells (Table 18 of the text prints this value under a second TUHR10TKB row)
[3] = biological target: human ENPP3 on cells (human) (UniProt O14638); assay: flow cytometry receptor quantification on CHO-K1 ENPP3-OE cells; bar above the ULOD line
[4] = biological target: human ENPP3 on cells (human) (UniProt O14638); assay: flow cytometry receptor quantification on Hep3B cells
[5] = biological target: human ENPP3 on cells (human) (UniProt O14638); assay: flow cytometry receptor quantification on KMRC20 cells
[6] = biological target: human ENPP3 on cells (human) (UniProt O14638); assay: flow cytometry receptor quantification on ACHN cells
[7] = biological target: human ENPP3 on cells (human) (UniProt O14638); assay: flow cytometry receptor quantification on HUH-7 cells

human ENPP3 on cells (human), sequence (O14638 whole entry): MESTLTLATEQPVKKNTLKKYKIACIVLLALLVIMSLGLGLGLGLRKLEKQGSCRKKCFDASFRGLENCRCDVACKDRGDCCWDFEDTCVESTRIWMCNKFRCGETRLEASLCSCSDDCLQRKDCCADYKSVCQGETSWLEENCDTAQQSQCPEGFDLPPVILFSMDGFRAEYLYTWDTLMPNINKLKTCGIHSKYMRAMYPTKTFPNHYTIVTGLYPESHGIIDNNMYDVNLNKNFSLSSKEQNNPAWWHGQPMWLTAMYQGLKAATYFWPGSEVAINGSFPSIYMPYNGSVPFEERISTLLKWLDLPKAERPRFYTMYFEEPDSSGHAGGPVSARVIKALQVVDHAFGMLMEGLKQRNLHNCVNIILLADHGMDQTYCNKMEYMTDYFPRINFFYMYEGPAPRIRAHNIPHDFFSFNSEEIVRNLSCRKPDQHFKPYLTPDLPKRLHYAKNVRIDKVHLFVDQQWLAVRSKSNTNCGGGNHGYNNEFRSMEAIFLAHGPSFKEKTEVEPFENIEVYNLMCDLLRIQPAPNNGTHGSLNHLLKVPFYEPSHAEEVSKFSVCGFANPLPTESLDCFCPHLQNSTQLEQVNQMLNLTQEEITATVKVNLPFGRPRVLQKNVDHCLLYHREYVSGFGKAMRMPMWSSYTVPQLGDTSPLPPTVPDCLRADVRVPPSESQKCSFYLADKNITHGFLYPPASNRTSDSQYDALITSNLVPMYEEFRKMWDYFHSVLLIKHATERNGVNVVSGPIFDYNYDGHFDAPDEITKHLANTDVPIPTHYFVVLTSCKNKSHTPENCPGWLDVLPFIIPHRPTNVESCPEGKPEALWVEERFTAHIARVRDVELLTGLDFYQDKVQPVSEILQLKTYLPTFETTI

An ENPP3 Receptor Density - Antibody Binding capacity (ABC) [1] of 4000 ABC, an ENPP3 Receptor Density - Antibody Binding capacity (ABC) [2] of 61000 ABC and an ENPP3 Receptor Density - Antibody Binding capacity (ABC) [3] of over 470000 ABC were found for commercial ENPP3 antibody clone NP4D6 in this work. The ENPP3 Receptor Density - Antibody Binding capacity (ABC) [4] was 13000 ABC, the ENPP3 Receptor Density - Antibody Binding capacity (ABC) [5] was 21000 ABC and the ENPP3 Receptor Density - Antibody Binding capacity (ABC) [6] was 5000 ABC. It also gave an ENPP3 Receptor Density - Antibody Binding capacity (ABC) [7] of 7000 ABC.
